What was measured:
carbonic anhydrase (CA) = target: T1, carbonic anhydrase (CA) (Bos taurus, UniProt P00921); experiment: Real-time monitoring of tryptic digestion of carbonic anhydrase using epicocconone with and without SDS; type: biochemical, bovine
T1 construct: purchased Sigma-Aldrich C7025
Method: • 1 Trypsin digestion was carried out in bicine buffer (pH 8.4) • 2 Protein samples were prepared in 10 mg/mL in 100 mM bicine buffer. • 3 One hundred microliter of the protein sample was used for trypsin digestion.
• 4. The 100 μL of protein samples was reduced by adding 1 μL of 10% SDS and 5 μL of DTT stock for 10 min at 80° C. • 5. Another sample was reduced with only 5 μL of DTT stock for 10 min at 80° C. (no SDS) • 3 The samples were alkylated by adding 4 μL of the iodoacetamide stock at room temperature for 45 min-1 hr. • 4 The remaining iodoacetamide of the samples were neutralised by adding 20 μL of the DTT at room temp for 45 min-1 hr. […] Fluorescence development was monitored in real time every 2 minutes up to 400 minutes using FluoStar (Ex/Em=540±10/[…]±10). • 16. […]
Progress curves were fitted as per Example 6. […] In the presence of a non-denaturing quantity of detergent (open squares) carbonic anhydrase (CA) becomes more hydrophobic and has an increase in fluorescence when exposed to a fluorophore that is sensitive to its environment such as epicocconone. Upon addition of trypsin, the fluorescence drops as per Example 6 but in the sample with no SDS (inverted triangles) the change in fluorescence is reduced by more than 50% compared to in the presence of SDS (open circles). […]

BSA = target: T2, BSA (Bos taurus, UniProt P02769); experiment: Real-time monitoring of trypsin digestion of BSA using epicocconone (FluoStar assay); type: biochemical, bovine; conditions: epicocconone reporter dye, bicine pH 8.4, 37° C., trypsin 1:40, reduced and alkylated BSA
T2 construct: purchased Sigma-Aldrich A3059
Method: A.3.1 Preparation of BSA for digestion • 1 Trypsin digestion was carried out in bicine buffer (ph 8.4). • 2 BSA was prepared in 10 mg/mL in 50 mM bicine buffer. • 3 One hundred microliter of the BSA sample was used for trypsin digestion.
A.3.2 Reduction and Alkylation • 1 The 100 μL of BSA sample was reduced by adding 5 μL of DTT stock for 10 min at 80° C. • 2 The sample was alkylated by adding 4 μL of the iodoacetamide stock at room temperature for 45 min-1 hr. • 3 The remaining iodoacetamide of the sample was neutralized by adding 20 μL of the DTT at room temp for 45 min-1 hr.
A.3.3 Real-Time Monitoring of Trypsin Digestion Using Epicocconone (FluoStar Assay) • 1 The reduced and denatured BSA sample from 3.2 above was diluted 10-fold in 50 mM bicine buffer (25 μL+225 μL bicine buffer). BSA molar concentration was calculated to be approx. 4 μM. • 2 One hundred microliter of the sample (step 1) was prepared in duplicates and added to a microtiter plate. […] At this point in time, it required approximately 10 min to get appropriate FluoStar setting conditions. • 4 Trypsin (Sigma-Aldrich T6567), reconstituted in 1 mM HCl, was added at a ratio of 1:40. • 5 Fluorescence development was monitored in real time every 2 minutes up to 6 hours using FluoStar (Ex/Em=540/630±12). […]

T1 sequence (P00921 whole entry): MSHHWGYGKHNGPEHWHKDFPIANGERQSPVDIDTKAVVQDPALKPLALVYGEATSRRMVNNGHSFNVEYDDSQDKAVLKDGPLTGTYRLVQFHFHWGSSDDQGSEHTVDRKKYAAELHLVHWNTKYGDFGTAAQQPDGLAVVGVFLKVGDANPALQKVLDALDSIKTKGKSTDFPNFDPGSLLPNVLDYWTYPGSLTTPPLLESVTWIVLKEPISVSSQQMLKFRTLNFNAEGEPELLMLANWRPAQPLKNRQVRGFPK
T2 sequence (P02769 25-607): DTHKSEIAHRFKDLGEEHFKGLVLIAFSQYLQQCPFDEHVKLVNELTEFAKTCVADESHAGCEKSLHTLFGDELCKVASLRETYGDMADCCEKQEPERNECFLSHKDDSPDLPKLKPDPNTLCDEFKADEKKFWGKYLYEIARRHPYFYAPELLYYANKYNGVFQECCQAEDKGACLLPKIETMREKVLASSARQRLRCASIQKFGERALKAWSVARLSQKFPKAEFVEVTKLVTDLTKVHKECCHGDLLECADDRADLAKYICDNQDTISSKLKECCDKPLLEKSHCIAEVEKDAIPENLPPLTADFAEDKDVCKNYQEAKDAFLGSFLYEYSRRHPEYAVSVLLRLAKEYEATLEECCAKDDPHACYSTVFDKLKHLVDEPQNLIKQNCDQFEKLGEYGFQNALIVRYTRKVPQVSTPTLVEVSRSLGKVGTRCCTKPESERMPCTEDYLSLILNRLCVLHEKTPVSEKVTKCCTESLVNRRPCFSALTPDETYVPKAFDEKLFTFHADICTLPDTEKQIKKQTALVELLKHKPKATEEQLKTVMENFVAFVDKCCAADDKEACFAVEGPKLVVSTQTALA

- observed rate constant (carbonic anhydrase (CA); with SDS): 0.025 min⁻¹
- observed rate constant (carbonic anhydrase (CA); without SDS): 0.025 min⁻¹
- apparent first order rate constant (BSA): 0.109 min⁻¹
B1: trypsin: Proteomics grade trypsin protease, Sigma-Aldrich T6567 (protein, UniProt P00761 9-231, looked up)
Trypsin: IVGGYTCAANSIPYQVSLNSGSHFCGGSLINSQWVVSAAHCYKSRIQVRLGEHNIDVLEGNEQFINAAKIITHPNFNGNTLDNDIMLIKLSSPATLNSRVATVSLPRSCAAAGTECLISGWGNTKSSGSSYPSLLQCLKAPVLSDSSCKSSYPGQITGNMICVGFLEGGKDSCQGDSGGPVVCNGQLQGIVSWGYGCAQKNKPGVYTKVCNYVNWIQQTIAAN
